Measurements from US20260242735A1.

Key:
Assay in all cases: alanine scan, flow cytometry
human CD33 N237A (human) = human CD33 N237A (human) (UniProt P20138)
human CD33 Q251A (human) = human CD33 Q251A (human) (UniProt P20138)
human CD33 V221A (human) = human CD33 V221A (human) (UniProt P20138)
human CD33 H259A (human) = human CD33 H259A (human) (UniProt P20138)
human CD33 R202A (human) = human CD33 R202A (human) (UniProt P20138)
human CD33 P244A (human) = human CD33 P244A (human) (UniProt P20138)
human CD33 H206A (human) = human CD33 H206A (human) (UniProt P20138)
human CD33 C212A (human) = human CD33 C212A (human) (UniProt P20138)
human CD33 Q236A (human) = human CD33 Q236A (human) (UniProt P20138)
human CD33 G263A (human) = human CD33 G263A (human) (UniProt P20138)
human CD33 T226A (human) = human CD33 T226A (human) (UniProt P20138)
human CD33 F216A (human) = human CD33 F216A (human) (UniProt P20138)
human CD33 G220A (human) = human CD33 G220A (human) (UniProt P20138)
human CD33 T200A (human) = human CD33 T200A (human) (UniProt P20138)
human CD33 V258A (human) = human CD33 V258A (human) (UniProt P20138)
human CD33 G264A (human) = human CD33 G264A (human) (UniProt P20138)
human CD33 A269S (human) = human CD33 A269S (human) (UniProt P20138)
human CD33 P203A (human) = human CD33 P203A (human) (UniProt P20138)
human CD33 P238A (human) = human CD33 P238A (human) (UniProt P20138)
human CD33 T208A (human) = human CD33 T208A (human) (UniProt P20138)
human CD33 I242A (human) = human CD33 I242A (human) (UniProt P20138)
human CD33 F243A (human) = human CD33 F243A (human) (UniProt P20138)
human CD33 K215A (human) = human CD33 K215A (human) (UniProt P20138)
human CD33 Q228A (human) = human CD33 Q228A (human) (UniProt P20138)
human CD33 E224A (human) = human CD33 E224A (human) (UniProt P20138)
human CD33 L197A (human) = human CD33 L197A (human) (UniProt P20138)
human CD33 V234A (human) = human CD33 V234A (human) (UniProt P20138)
human CD33 G260A (human) = human CD33 G260A (human) (UniProt P20138)
human CD33 T239A (human) = human CD33 T239A (human) (UniProt P20138)
human CD33 I198A (human) = human CD33 I198A (human) (UniProt P20138)
human CD33 A217S (human) = human CD33 A217S (human) (UniProt P20138)
human CD33 Y233A (human) = human CD33 Y233A (human) (UniProt P20138)
human CD33 T222A (human) = human CD33 T222A (human) (UniProt P20138)
human CD33 G241A (human) = human CD33 G241A (human) (UniProt P20138)
human CD33 A255S (human) = human CD33 A255S (human) (UniProt P20138)
human CD33 V231A (human) = human CD33 V231A (human) (UniProt P20138)
human CD33 A265S (human) = human CD33 A265S (human) (UniProt P20138)
human CD33 V257A (human) = human CD33 V257A (human) (UniProt P20138)
human CD33 D246A (human) = human CD33 D246A (human) (UniProt P20138)
human CD33 V214A (human) = human CD33 V214A (human) (UniProt P20138)
human CD33 G256A (human) = human CD33 G256A (human) (UniProt P20138)
human CD33 E252A (human) = human CD33 E252A (human) (UniProt P20138)
human CD33 V267A (human) = human CD33 V267A (human) (UniProt P20138)
human CD33 T268A (human) = human CD33 T268A (human) (UniProt P20138)
human CD33 A219S (human) = human CD33 A219S (human) (UniProt P20138)
human CD33 G247A (human) = human CD33 G247A (human) (UniProt P20138)
human CD33 P201A (human) = human CD33 P201A (human) (UniProt P20138)
human CD33 I262A (human) = human CD33 I262A (human) (UniProt P20138)
human CD33 I227A (human) = human CD33 I227A (human) (UniProt P20138)
human CD33 Q213A (human) = human CD33 Q213A (human) (UniProt P20138)
human CD33 V196A (human) = human CD33 V196A (human) (UniProt P20138)
human CD33 T232A (human) = human CD33 T232A (human) (UniProt P20138)

Chain of human CD33 I198A (human) (P20138 18-364 I198A limits assumed): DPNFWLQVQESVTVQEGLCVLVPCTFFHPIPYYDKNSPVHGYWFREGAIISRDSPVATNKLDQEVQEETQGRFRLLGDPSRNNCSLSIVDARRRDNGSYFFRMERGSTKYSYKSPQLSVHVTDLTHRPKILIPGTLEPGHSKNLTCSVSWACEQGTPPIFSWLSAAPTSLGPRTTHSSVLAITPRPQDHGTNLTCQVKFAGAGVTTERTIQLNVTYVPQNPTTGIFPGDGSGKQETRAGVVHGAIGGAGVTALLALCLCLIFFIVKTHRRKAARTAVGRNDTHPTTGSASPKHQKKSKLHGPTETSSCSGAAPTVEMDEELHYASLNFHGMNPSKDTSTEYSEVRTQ
Chain of human CD33 P244A (human) (P20138 18-364 P244A limits assumed): as the sequence (P20138 18-364 I198A limits assumed) above, with A181I, P227A counted along it
Chain of human CD33 T239A (human) (P20138 18-364 T239A limits assumed): as the sequence (P20138 18-364 I198A limits assumed) above, with A181I, T222A counted along it
Chain of human CD33 Q213A (human) (P20138 18-364 Q213A limits assumed): as the sequence (P20138 18-364 I198A limits assumed) above, with A181I, Q196A counted along it
Chain of human CD33 T200A (human) (P20138 18-364 T200A limits assumed): as the sequence (P20138 18-364 I198A limits assumed) above, with A181I, T183A counted along it
Chain of human CD33 D246A (human) (P20138 18-364 D246A limits assumed): as the sequence (P20138 18-364 I198A limits assumed) above, with A181I, D229A counted along it
Chain of human CD33 V196A (human) (P20138 18-364 V196A limits assumed): as the sequence (P20138 18-364 I198A limits assumed) above, with V179A, A181I counted along it
Chain of human CD33 G260A (human) (P20138 18-364 G260A limits assumed): as the sequence (P20138 18-364 I198A limits assumed) above, with A181I, G243A counted along it
Chain of human CD33 H259A (human) (P20138 18-364 H259A limits assumed): as the sequence (P20138 18-364 I198A limits assumed) above, with A181I, H242A counted along it
Chain of human CD33 A269S (human) (P20138 18-364 A269S limits assumed): as the sequence (P20138 18-364 I198A limits assumed) above, with A181I, A252S counted along it
Chain of human CD33 F216A (human) (P20138 18-364 F216A limits assumed): as the sequence (P20138 18-364 I198A limits assumed) above, with A181I, F199A counted along it
Chain of human CD33 A217S (human) (P20138 18-364 A217S limits assumed): as the sequence (P20138 18-364 I198A limits assumed) above, with A181I, A200S counted along it
Chain of human CD33 P238A (human) (P20138 18-364 P238A limits assumed): as the sequence (P20138 18-364 I198A limits assumed) above, with A181I, P221A counted along it
Chain of human CD33 T208A (human) (P20138 18-364 T208A limits assumed): as the sequence (P20138 18-364 I198A limits assumed) above, with A181I, T191A counted along it

Work on Refmab #7 (WM53) (antibody) yielded a Mean % WT Binding (human CD33 N237A (human)) of 116 % WT binding, a Mean % WT Binding (human CD33 Q251A (human)) of 108 % WT binding and a Mean % WT Binding (human CD33 V221A (human)) of 99.7 % WT binding. The Mean % WT Binding (human CD33 H259A (human)) was 119 % WT binding, the Mean % WT Binding (human CD33 R202A (human)) was 104 % WT binding and the Mean % WT Binding (human CD33 P244A (human)) was 99 % WT binding. It also gave a Mean % WT Binding (human CD33 H206A (human)) of 108 % WT binding, a Mean % WT Binding (human CD33 C212A (human)) of 17.8 % WT binding and a Mean % WT Binding (human CD33 Q236A (human)) of 94.3 % WT binding. It also gave a Mean % WT Binding (human CD33 G263A (human)) of 104 % WT binding, a Mean % WT Binding (human CD33 T226A (human)) of 99.1 % WT binding and a Mean % WT Binding (human CD33 F216A (human)) of 112 % WT binding. For the same substance, the Mean % WT Binding (human CD33 G220A (human)) was 120 % WT binding, the Mean % WT Binding (human CD33 T200A (human)) was 97.6 % WT binding and the Mean % WT Binding (human CD33 V258A (human)) was 98.8 % WT binding. It also gave a Mean % WT Binding (human CD33 G264A (human)) of 82.8 % WT binding, a Mean % WT Binding (human CD33 A269S (human)) of 118 % WT binding and a Mean % WT Binding (human CD33 P203A (human)) of 113 % WT binding. For the same substance, the Mean % WT Binding (human CD33 P238A (human)) was 129 % WT binding, the Mean % WT Binding (human CD33 T208A (human)) was 102 % WT binding and the Mean % WT Binding (human CD33 I242A (human)) was 105 % WT binding. For the same substance, the Mean % WT Binding (human CD33 F243A (human)) was 91.8 % WT binding, the Mean % WT Binding (human CD33 K215A (human)) was 145 % WT binding and the Mean % WT Binding (human CD33 Q228A (human)) was 115 % WT binding. The Mean % WT Binding (human CD33 E224A (human)) was 126 % WT binding, the Mean % WT Binding (human CD33 L197A (human)) was 115 % WT binding and the Mean % WT Binding (human CD33 V234A (human)) was 98.6 % WT binding. For the same substance, the Mean % WT Binding (human CD33 G260A (human)) was 87.2 % WT binding, the Mean % WT Binding (human CD33 T239A (human)) was 112 % WT binding and the Mean % WT Binding (human CD33 I198A (human)) was 111 % WT binding. It also gave a Mean % WT Binding (human CD33 A217S (human)) of 114 % WT binding, a Mean % WT Binding (human CD33 Y233A (human)) of 109 % WT binding and a Mean % WT Binding (human CD33 T222A (human)) of 110 % WT binding. It also gave a Mean % WT Binding (human CD33 G241A (human)) of 131 % WT binding, a Mean % WT Binding (human CD33 A255S (human)) of 121 % WT binding and a Mean % WT Binding (human CD33 V231A (human)) of 112 % WT binding. For the same substance, the Mean % WT Binding (human CD33 A265S (human)) was 110 % WT binding, the Mean % WT Binding (human CD33 V257A (human)) was 124 % WT binding and the Mean % WT Binding (human CD33 D246A (human)) was 99.5 % WT binding. The Mean % WT Binding (human CD33 V214A (human)) was 120 % WT binding, the Mean % WT Binding (human CD33 G256A (human)) was 106 % WT binding and the Mean % WT Binding (human CD33 E252A (human)) was 120 % WT binding. The Mean % WT Binding (human CD33 V267A (human)) was 92.6 % WT binding, the Mean % WT Binding (human CD33 T268A (human)) was 148 % WT binding and the Mean % WT Binding (human CD33 A219S (human)) was 121 % WT binding. It also gave a Mean % WT Binding (human CD33 G247A (human)) of 123 % WT binding, a Mean % WT Binding (human CD33 P201A (human)) of 110 % WT binding and a Mean % WT Binding (human CD33 I262A (human)) of 119 % WT binding. The Mean % WT Binding (human CD33 I227A (human)) was 101 % WT binding, the Mean % WT Binding (human CD33 Q213A (human)) was 103 % WT binding and the Mean % WT Binding (human CD33 V196A (human)) was 117 % WT binding. It also gave a Mean % WT Binding (human CD33 T232A (human)) of 95.3 % WT binding.
